Experimental findings from patent US20200360486A1 are described below.

For series [1], the system named is Cy3-conjugated K9-C-peptide (C-peptide bound to the elastin-like polypeptide composed of 9 [(VPGVG)11(VPGKG)1(VPGVG)1] repeating units), as hydrogel on an amine array.
For series [2], the target named is Cy3-conjugated K9-C-peptide (C-peptide bound to the elastin-like polypeptide composed of 9 [(VPGVG)11(VPGKG)1(VPGVG)1] repeating units), as hydrogel on an amine array. Kind of series: cell-based or functional assay.

Chain of Cy3-conjugated K9-C-peptide (C-peptide bound to the elastin-like polypeptide composed of 9 [(VPGVG)11(VPGKG)1(VPGVG)1] repeating units), as hydrogel on an amine array (chain, as listed by the source): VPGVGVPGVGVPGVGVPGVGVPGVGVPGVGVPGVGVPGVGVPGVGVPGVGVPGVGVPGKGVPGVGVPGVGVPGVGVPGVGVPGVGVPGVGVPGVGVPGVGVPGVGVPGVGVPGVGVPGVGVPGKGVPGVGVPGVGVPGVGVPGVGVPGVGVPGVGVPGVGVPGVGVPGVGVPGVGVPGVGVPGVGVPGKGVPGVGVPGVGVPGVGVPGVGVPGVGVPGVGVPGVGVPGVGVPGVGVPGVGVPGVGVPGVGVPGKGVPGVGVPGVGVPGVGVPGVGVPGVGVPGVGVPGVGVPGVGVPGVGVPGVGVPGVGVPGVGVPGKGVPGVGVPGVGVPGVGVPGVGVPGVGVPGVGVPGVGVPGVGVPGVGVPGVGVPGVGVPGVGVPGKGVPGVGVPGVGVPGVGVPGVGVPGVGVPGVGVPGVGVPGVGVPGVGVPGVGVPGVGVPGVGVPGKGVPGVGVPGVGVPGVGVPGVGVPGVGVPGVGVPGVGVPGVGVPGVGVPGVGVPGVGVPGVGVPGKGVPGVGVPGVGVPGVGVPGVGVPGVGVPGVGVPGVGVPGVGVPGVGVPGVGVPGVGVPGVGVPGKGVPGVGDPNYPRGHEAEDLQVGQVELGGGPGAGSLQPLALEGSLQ

In the case of elastase-2, in series [1], the “highest degradation rate of the hydrogel, at 120 min (time course)” value amounted to 72.3% at 120 min; the “hydrogel degraded after the first elastase-2 treatment (repeated every 30 min)” value is reported as 48.6+/-0.8%; the “maximum degradation rate, after the fifth elastase-2 treatment” value is reported as 89.7+/-0.2%.
With pepsin (enzyme), in series [2], the EC50 of on-chip degradation of Cy3-conjugated K9-C-peptide hydrogel versus protease concentration stood at 510 U/ml.
Still for that read-out and setting: the value for collagenase-2 (enzyme) was 0.17 U/ml; that for trypsin (enzyme) was 125 U/ml; that for elastase-2 (enzyme) was 0.23 U/ml.
